Results on 1 molecule are retold here after CN112125972A (SINOCELLTECH LTD, dated 2020).

One assay deals with T1, HPV35 VLP (Human papillomavirus type 35, UniProt P27232 1-502).
T1 construct: also called HPV35完整VLP蛋白
T1 sequence: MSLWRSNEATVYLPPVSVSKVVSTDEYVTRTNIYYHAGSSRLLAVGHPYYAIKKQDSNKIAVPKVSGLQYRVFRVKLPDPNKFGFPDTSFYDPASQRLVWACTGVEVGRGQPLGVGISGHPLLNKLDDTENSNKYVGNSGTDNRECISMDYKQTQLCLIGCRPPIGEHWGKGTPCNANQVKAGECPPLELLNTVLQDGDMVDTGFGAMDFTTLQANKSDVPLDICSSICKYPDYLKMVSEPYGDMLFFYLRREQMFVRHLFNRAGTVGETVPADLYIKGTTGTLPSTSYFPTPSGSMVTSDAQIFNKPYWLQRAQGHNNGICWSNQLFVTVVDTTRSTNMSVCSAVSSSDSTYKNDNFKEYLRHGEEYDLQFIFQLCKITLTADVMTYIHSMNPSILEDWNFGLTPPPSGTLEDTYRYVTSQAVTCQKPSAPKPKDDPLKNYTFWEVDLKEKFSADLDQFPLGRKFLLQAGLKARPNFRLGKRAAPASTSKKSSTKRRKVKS
The assay can be described thus: double-antibody sandwich ELISA, R001 as capture and HRP-R001 as detection, mixture of HPV types. (In an ELISA, binding on a coated surface is turned into a signal by an enzyme label.)

The next assay concerns the target T2, HPV52 VLP (Human papillomavirus type 52, UniProt Q05138 27-529).
T2 construct: also called HPV52完整VLP蛋白
T2 sequence: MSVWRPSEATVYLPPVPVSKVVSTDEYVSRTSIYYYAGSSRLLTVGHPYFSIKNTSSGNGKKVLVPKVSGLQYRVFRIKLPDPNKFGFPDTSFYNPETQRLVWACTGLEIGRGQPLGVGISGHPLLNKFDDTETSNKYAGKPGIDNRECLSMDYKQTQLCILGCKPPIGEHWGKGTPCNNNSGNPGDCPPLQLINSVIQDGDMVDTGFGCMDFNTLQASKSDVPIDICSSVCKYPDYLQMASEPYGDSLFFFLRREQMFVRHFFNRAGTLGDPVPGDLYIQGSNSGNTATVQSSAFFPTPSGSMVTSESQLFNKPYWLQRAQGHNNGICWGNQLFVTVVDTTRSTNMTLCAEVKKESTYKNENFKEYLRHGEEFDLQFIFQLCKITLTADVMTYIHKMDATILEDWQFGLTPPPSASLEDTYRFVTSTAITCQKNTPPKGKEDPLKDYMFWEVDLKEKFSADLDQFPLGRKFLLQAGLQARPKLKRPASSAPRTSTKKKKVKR
In words: indirect ELISA, VLP coated at 2 μg/mL.

In the next assay the target is T3, HPV6 VLP (Human papillomavirus type 6, UniProt P69899 1-500).
T3 construct: also called HPV6完整VLP蛋白
T3 sequence: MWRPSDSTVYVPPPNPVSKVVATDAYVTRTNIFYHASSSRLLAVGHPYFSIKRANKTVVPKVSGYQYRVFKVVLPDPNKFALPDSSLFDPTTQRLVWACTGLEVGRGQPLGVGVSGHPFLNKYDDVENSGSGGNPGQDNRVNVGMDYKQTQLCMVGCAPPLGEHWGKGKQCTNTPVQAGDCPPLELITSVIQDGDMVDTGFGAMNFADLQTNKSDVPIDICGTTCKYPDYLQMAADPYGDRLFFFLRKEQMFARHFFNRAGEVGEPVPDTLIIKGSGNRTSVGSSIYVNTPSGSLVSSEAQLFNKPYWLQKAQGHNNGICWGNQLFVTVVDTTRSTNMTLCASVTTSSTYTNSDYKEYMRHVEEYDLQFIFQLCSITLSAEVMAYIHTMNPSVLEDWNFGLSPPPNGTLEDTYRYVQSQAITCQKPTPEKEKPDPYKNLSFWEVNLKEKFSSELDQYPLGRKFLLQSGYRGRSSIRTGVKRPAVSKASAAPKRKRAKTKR
In words: indirect ELISA, VLP coated at 2 μg/mL.

The next assay concerns the target T4, HPV56 VLP (Human papillomavirus type 56, UniProt P36743 36-534).
T4 construct: also called HPV56完整VLP蛋白
T4 sequence: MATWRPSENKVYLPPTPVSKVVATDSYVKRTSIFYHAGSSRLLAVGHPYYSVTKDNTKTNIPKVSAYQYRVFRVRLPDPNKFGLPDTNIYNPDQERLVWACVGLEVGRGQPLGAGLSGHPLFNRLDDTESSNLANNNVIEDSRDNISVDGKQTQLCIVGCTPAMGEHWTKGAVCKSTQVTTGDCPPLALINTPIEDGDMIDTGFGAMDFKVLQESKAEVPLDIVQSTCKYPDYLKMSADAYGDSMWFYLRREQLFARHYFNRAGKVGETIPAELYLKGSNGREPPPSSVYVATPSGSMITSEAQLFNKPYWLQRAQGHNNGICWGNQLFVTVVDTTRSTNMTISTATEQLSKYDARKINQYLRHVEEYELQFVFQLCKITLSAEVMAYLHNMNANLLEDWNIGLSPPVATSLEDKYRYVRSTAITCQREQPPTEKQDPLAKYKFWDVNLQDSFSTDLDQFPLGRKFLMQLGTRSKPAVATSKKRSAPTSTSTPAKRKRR
The assay can be described thus: indirect ELISA, VLP coated at 2 μg/mL.

For the next assay, the target named is T5, HPV58 VLP (Human papillomavirus type 58, UniProt P26535 27-524).
T5 construct: also called HPV58完整VLP蛋白
T5 sequence: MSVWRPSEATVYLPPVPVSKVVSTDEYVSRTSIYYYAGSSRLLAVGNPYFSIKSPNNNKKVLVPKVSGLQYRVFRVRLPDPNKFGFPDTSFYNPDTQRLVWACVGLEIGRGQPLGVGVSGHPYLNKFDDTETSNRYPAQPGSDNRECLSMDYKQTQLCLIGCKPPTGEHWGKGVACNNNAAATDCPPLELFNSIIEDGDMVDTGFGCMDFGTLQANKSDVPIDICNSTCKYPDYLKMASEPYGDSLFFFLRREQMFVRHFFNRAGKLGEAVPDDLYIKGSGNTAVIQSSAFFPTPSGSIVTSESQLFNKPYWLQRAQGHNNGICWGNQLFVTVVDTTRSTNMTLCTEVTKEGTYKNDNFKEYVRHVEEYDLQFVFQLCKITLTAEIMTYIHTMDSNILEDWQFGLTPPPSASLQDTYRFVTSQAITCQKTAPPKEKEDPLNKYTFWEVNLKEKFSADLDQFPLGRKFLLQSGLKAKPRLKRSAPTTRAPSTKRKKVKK
The assay can be described thus: indirect ELISA, VLP coated at 2 μg/mL.

B1: HPV 16 R001 (antibody, V domains shown)
VH: QSVKESEGRLVTPGTPLTLTCTASGFTMSRYHMTWVRQAPGKGLEWIGIIYARNSDTYYANWAKGRFTISKTSTTVDLKITSPTIEDTATYFCARVDSDSSGAFDRLDLWGQGTLVTVSS
VL: DPMLTQTAASVEVAVGGTVTIKCQASQSIGGYLSWYQQKPGQRPKLLIYRASTLASGVPSRFKGSGSGTEYTLTFSGVECADAAAYYCQQGYTSSDINNAFGGGTEVVVK
notes: An HRP-labelled form served as detection antibody in the sandwich ELISA; also called HPV16.001; 单克隆抗体HPV 16 R001
As for B1, the binding result with HPV35 VLP is given as “no binding (tested: 50ng/mL，25ng/mL，12.5ng/mL)”; with HPV52 VLP, “no binding (tested: 10ng/mL)”; with HPV6 VLP, “no binding (tested: 10ng/mL)”; with HPV56 VLP, “no binding (tested: 10ng/mL)”; with HPV58 VLP, “no binding (tested: 10ng/mL)”.
